FireProtDB (doi:10.1093/jb/mvq079)

Details: Escherichia coli (strain K12), whole UniProt chain shown

B1: Divalent-cation tolerance protein CutA wild type, P69488 (protein)
chain: MLDEKSSNTASVVVLCTAPDEATAQDLAAKVLAEKLAACATLIPGATSLYYWEGKLEQEYEVQMILKTTVSHQQALLECLKSHHPYQTPELLVLPVTHGDTDYLSWLNASLR
denaturant midpoint (higher = more stable) (pH 8, 37 °C, GdnHCl, CD, Tris-HCl, reversible: yes): 2.72 M | Tm (pH 9, Thermal, DSC, glycine Buffer, transition: 2, reversible: no): 89.9 °C
